In PMC3397886:

Legend:
[1] = molecular target: V1 (A-His8/ΔCys, A-C255A/A-S232A/A-T235S/F-S54C) labelled with Cy3-maleimide on subunit F (Thermus thermophilus) (UniProt Q56403); test: FRET or BRET
[2] = molecular target: A3B3D (A-His8/ΔCys, A-C255A/A-S232A/A-T235S, D/E48C) labelled with Cy3-maleimide on subunit D (Thermus thermophilus) (UniProt Q56403); test: FRET or BRET

- Kd [1]: 0.26 nM
- Kd [2]: 1.1 nM
Substance: Vo (C-S105C/C-C268S/C-C323S) labelled with Cy5-maleimide on subunit C (from UniProt P74902 1-323; P74901 1-188) (complex)
